According to patent publication US20050249738A1:

Target: CD22 on human B cells (human) (UniProt P20273)
Assay: cell-based or functional assay

UniProt P20273, sequence (P20273 20-847): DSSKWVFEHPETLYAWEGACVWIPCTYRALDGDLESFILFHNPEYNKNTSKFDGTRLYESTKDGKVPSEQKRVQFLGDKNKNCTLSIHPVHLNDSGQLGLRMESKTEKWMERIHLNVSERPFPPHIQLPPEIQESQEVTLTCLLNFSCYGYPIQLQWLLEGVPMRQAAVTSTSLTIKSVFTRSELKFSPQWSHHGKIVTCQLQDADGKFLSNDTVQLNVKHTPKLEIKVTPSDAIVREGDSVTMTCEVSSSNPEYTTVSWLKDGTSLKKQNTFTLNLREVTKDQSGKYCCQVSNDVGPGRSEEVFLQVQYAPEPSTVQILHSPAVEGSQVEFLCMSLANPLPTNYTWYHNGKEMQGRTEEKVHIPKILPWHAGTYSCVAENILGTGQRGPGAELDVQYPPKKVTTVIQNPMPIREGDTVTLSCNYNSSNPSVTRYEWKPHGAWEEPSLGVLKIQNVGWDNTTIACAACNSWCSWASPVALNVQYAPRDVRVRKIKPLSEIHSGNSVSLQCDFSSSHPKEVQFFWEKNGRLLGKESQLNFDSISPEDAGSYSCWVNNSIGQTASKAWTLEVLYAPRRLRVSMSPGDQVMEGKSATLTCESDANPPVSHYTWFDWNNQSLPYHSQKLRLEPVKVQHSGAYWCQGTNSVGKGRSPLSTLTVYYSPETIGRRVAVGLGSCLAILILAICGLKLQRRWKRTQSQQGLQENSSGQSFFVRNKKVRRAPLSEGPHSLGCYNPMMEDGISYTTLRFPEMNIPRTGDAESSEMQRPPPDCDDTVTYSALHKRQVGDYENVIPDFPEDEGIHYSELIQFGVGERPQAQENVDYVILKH

With LL2-ONCONASE® immunotoxin the IC50 of protein synthesis inhibition, CA 46 cells, 24 h was 800 pM, the IC50 of protein synthesis inhibition, Daudi cells, 24 h was 100 pM and the IC50 of protein synthesis inhibition, Raji cells, 24 h was 800 pM.
